The record followed here is PMC4757451.

Substrate in this data set: NC(=O)N1c2ccccc2C=Cc2ccccc21
As to the kind of experiment: Steady-state NADPH oxidation by CYP3A4 Nanodiscs with CPR. Format: biochemical, human. The note with it: other: at 30 µM PGS; at 200 µM CBZ; pH 7.4; 37.0 °C.

B1: CYP3A4 (Homo sapiens; S18F) (protein)
chain: MALLLAVFLVLLYLYGTHSHGLFKKLGIPGPTPLPFLGNILSYHKGFCMFDMECHKKYGKVWGFYDGQQPVLAITDPDMIKTVLVKECYSVFTNRRPFGPVGFMKSAISIAEDEEWKRLRSLLSPTFTSGKLKEMVPIIAQYGDVLVRNLRREAETGKPVTLKDVFGAYSMDVITSTSFGVNIDSLNNPQDPFVENTKKLLRFDFLDPFFLSITVFPFLIPILEVLNICVFPREVTNFLRKSVKRMKESRLEDTQKHRVDFLQLMIDSQNSKETESHKALSDLELVAQSIIFIFAGYETTSSVLSFIMYELATHPDVQQKLQEEIDAVLPNKAPPTYDTVLQMEYLDMVVNETLRLFPIAMRLERVCKKDVEINGMFIPKGVVVMIPSYALHRDPKYWTEPEKFLPERFSKKNKDNIDPYIYTPFGSGPRNCIGMRFALMNMKLALIRVLQNFSFKPCKETQIPLKLSLGGLLQPEKPVVLKVESRDGTVSGA
As for B1, the kcat (usually the maximal rate divided by the concentration of active sites) worked out at 2.05 s⁻¹.
